Data taken from a protein production outcome set (Wang et al. 2014).

Experiment: label from the status in PepcDB records
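Further: failed if final PepcDB status was selected cloned or expressed and not failed if soluble or beyond.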

| Sequence | protein production |
| --- | --- |
| MNKLSIIITYFNNEDYISECIHSLKSQRNQDFDIIVVDDGSTDRSTEILQEALKSYDKDVHFIQLQENTGHAHARNVALEQAHGQYVLFLDADDQLASYAVDYYLQHVNGLDTLIAPIHKFRSQRPQYVDKDKVRLQYASHQKSPNAILRKESACNILFKNAIIKAHQIQFNESLDIYADTSFVLEYLKYAERFVRITNFPFYYRGEVYDPFYGNTLSDQDFTNKFEDHVNSFFDAMQRTNDKRIKNFLIQRMKNEIKSGFDPALRDIKSRYVSLEDALIKIVKALKWNILKDGKVLYNLEILFLSMDDVENAKYVNDLRNKTRLVKNIVLNSKMKERSKYQLSDNEDLVDPNTIVFEAFGGKNYSDSPKYIYEYMQKHYPHLNYIWVFSKPENNNIPGNATKVKKGSQAYYDAYAKAKYWVTNARLPLYLNKKENQMYIQTWHGTPLKRLANDMKVVRMPGTTTANYKKNFYAEASRWDRLVSPNRYSSDIFKSAFWMDEDRIWEIGYPRNDVLVNRQNDTEYIEQIKRDLNLPADKKVIMYAPTWRDDEFVKKGQYLFDLKINLANLQKEIGDEYVILLRMHYLIANALDLHGYDDFAIDVSNYNDISELYLISDALVTDYSSVMFDFGILKRPQFFFAYDIEKYDKGLRGFYMDYMNDLPGEIITDEFKLAEELKQIDQHKVKYQDKIESFYNDFCSIENGKASQYIGDYIYKDIEKKS | failed |
| MLKTPYYLIDKRALLQNLEVIRRIRERSGAKVLLALKCFATWSVFDLMREYMDGTTSSSLFEVRLGREKFGGETHAYSVAYAEDDIDDVVACADKIIFNSLSQLERYAPRASAIPRGLRLNPGISVSGYDLANPARPFSRLGETDLDRIAQAMPMIDGFMVHNNCENRDFTRFDALLTELEHRYGHLLGQINWISLGGGIHFTEPGYALDAFCDRLRRFSEQYGVQVYLEPGEAAITNTATLEVTVLDVMRNEKNLAIVDAATEAHMLDLLIYRMSARVQPDQGPHRYVIYGNSCLAGDVFGEFSFESPLQPGSRISIQDAAGYTMVKKNWFNGVRMPAIAIRELDGEIRLVREFGYQDYVDSLS | failed |
| MTWLFCDRIATKIDKNNGISMITHNFNTLDLLTSPVWIVSPFEEQLIYANSAARLLMQDLTFSQLRTGPYSVSSQKELPKYLSDLQNQHDIIEILTVQRKEEETALSCRLVLRKLTEAEPVIIFEGIEAPATLGLKASRSANYQRKKQGFYARFFLTNSAPMLLIDPSRDGQIVDANLAALNFYGYNHETMCQKHTWEINMLGRRVMPIMHEISHLPGGHKPLNFVHKLADGSTRHVQTYAGPIEIYGDKLMLCIVHDITEQKRLEEQLEHAAHHDAMTGLLNRRQFYHITEPGQMQHLAIAQDYSLLLIDTDRFKHINDLYGHSKGDEVLCALARTLESCARKGDLVFRWGGEEFVLLLPRTPLDTALSLAETIRVSVAKVSISSLPRFTVSIGVAHHEGNESIDELFKRVDDALYRAKNDGRNRVLAA | failed |
| MDLNNNKSNNIVKTLARWCLLLQAFMISSNTVALKEPDYVNMNITIRNSMTGLIRPEIVYRCQSKRKDYGWHRSPKPGVQFSFPIILIKGETKIPAIHICQIRSVLGTATLVIQNTYLDAEMCPRSSCAHEATPKGIVFRGLEWDFKTVFPKLKPVEYLELPWTPWPNRT | failed |
| MSEDSELIEQVIEQPDSLIISPPSDSSSSSYNHIQPFVYLESTATTQTNHNVLLILNQKITIDLISLWKKCEIIVCADGGANSLYEYFNDNNHHHHHENLQRSDYIPDYIVGDFDSISPDVKTYYESHGSKIIRQSSQYYNDFTKSIHCIQLHYQLNHTKENWFESIDEVDGLAKLWNGLNNSSDVVVDIDITIYVLNAIGGRFDQTVQSINQLYIMNEDYPKVTVFFITTNDIIFLLKKGVNYISYKNRLMFHKDNGSSPTPTCGLLPLSNKTPIILNSYGLKYDMRNWKTEMLGQVSSSNRISGETGFIVECSDDIVMNIEIDV | not failed |
| AWKGEVLANNEAGQVTSIIYNPGDVITIVAAGWASYGPTQKWGPQGDREHPDQGLICHDAFCGALVMKIGNSGTIPVNTGLFRWVAPNNVQGAITLIYNDVPGTYGNNSGSFSVNIGKDQS | not failed |
| MLHGKGCKKDVKIIVWSGLLFLCLAARALATGVVGYLPMSDGEYAQKRALKPLLTLPYSVSPDQTWHFRQVGVSGVTLLPEPKKDNEWRISGKDRAGNSWVVPVGRLINLAGNAQFYRADLDRNGIQDLVIWLGNPGLGLAPSAQYIIFTFLKNGRPCVFEPWGFYTATDTGVDDLLDLQGNGRTQLLDMQFDSGYWITNLYQVKDARWQRVHGWFGRLSYPALTRFNHYPGRKLIIKPIAGRNPQTDDLSLTQRCLIRGNVLPGVNQD | failed |
| MAVALLGNRDGQAFLATLFDLARRGHVTLRHDREDQAFGTTDVVRLETHPAPNDLSDFERRLVDTLGEYETLDDFWSDTRSFRSDVMSDVRGVLFERGWMENHTVRSGLLLGGALVALLGGFAAVVTGDSALRFYLLFGGMGVSLGGFIAAVRQYTWTEDGARRAMALRAYLDHEKSEIERLRETSPARAAERLVDALPWLLLHDEVSRAWIEETKEALDAADEVPELPDGFVSLVETEGSARAPVAAFLPVVTVMGAVESSSAGAVGAAGASGAAGAAGGGAGAAGAA | failed |
| MPQRRPLRTMKWLIPGLWLASILFAHFRGRVRLSLSRQMLDHSVLLAPVNAFMVLTSRVPTTPYLTTSEIPELKVLDDNWETIRDEALKMAELRRIKAAERHDDIGFNSFFKYGWKRFYLKWYDARHPSAEELCPKTVAILKSLPKVKAAMFAELPPGGKLNPHRDPFSGSLRYHLGLATPNDDRCYIAVDGESYSWRDGESVVFDETYVHEAHNKSEGNRIILFCDVERPLKWRWAEAFNRWFGRVVMSAASSPNDAGDQTGAINKLTHAHWVIDQKRKQFKAWNRTVYKATKWGLIALVAIGFLAL | failed |
| DKGTALLVNRSLRFGERTAEELMTPRVKIVTLSTTDTVADLIDTASRTGFSRFPVVESDLDDAVGVVHIKHAFAVPAHRRRTARLNSLAQKVPVVPSSLDGDALMERIRSDGMQVAFVVDEYGGTAGMVTMEDLIEEIVGDVR | failed |
| MCDTFVEFIQLEETVKHDENGKPVKRLRRRETLVHSENVAGRSFWNEHSSLHKDLGHFAKDIGKIEPDYVKSFQFESRLLPLTWVVVRIDGCHFHRFSEVHEFEKPNDEQALKLMNSCAVAVLEEFQDIAFAYGVSDEFSFVLKNKSELYKRQSSKIISAVVSFFTSTYMMRWGDFFPHKKLKYPPSFDGRAVCYPTSDILLDYLAWRQVDCHINNQYNTCFWMLVKSGKSKIQAQDYLKGTQTREKNELLSQQFGIEYNSLPVIFRMGSSVFRLKVLLLLSYSKILLVFHSRFLLL | failed |
| GSAEILVPEVYHGPGKRGTGFYNADQKINRDITIEFIKKMGIRNVLDGFGGTGIRGIRISKETDSAVTISEVSPDSYRLIRDNVERNGSQASVINDSFECVLQHGAYEYVDVDPYGSPVPYLDAALMGVKRNGFLGVTATDQSALTGSVPHKTRIRYDALIKNDTFRHEMGIRLLIGYMAKRAASLGRFIDPLISIWHGHYYRVFVRVRKGFEGAGRMMQNLGYVNKHNLLSGIYQDMDEGPVWKGNLQDNAVAEAVLASAGHKAFNPEENRLLFCDLTDIARARHTSLPDIESVIDALSSSGHAASRTMFSPTGIKTDASCDLVESLMMDTLHRRS | failed |
| MLDPYRRYRHARLIHAVRVALGLIATILLTTGLNLPHGEWASVTMLVVIGGLQHHGNIGKKAAERAIGTLVGAGVGLVLVVQQAYFGHPWLTYLGMSVVCGYFSYHAIGKGGYTALLAAITVFIVAGHGDNQVSDGLWRAVDILIGIALALAFSFAIPLYAVYSWRYNLASALRDCAQLYGRIIKGQSVTDDEHLKLLGRVNSAMLQLRSLMPSVSKEVRISMTELDAIQRNLRMCISTLEILGNTRPDASDPQAMAQMQLALKAEHRQIRVQLIGMARALQSGVTQRLEKSVEGHPENALEAPVYSALDGYRLLTRQLAATLGEMHQRLAKSARHWKI | failed |
| MGLVGLHSGTIDMEFIGVEDHGDEEGKQIAVSVISSGKNADKTEDPDSLIFTGFGGTDMYHGQPCNQKLERLNIPLEAAFRKKSIVRVVRCMKDEKRTNGNIYIYDGTYMITNRWEEEGQNGFIVFKFKLVREPDQKPAFGIWKSIQNWRNGLSIRPGLILEDLSNGAENLKVCLVNEVDKENGPALFRYVTSLIHEVINNIPSMVDRCACGRRSCGSKHVFREKLSVSSSLVISAKKSGNVARFMNHSCSPNVFWQSIAREQNGLWCLYIGFFAMKHIPPLTELRYDYGKSRGGGKKMCLCRTKKCCGSFG | failed |
| MNSFAEKLMVGATAPSASVELPLGDRVRCVLVHEFLSASECEALIEATEQCGFASAGSDYPSSYRDNDRIVADDPAMAGRLFERLKHCASRMPKLGTVIDEDGWRPVGINERLRFCRYRPGTQFRAHQDGVHHRQRQQSRLTFMIYLNDDAFSGGETLFFEGRSAAMSNRDSTLRLRPRKGSLIVFDHTLWHAGALVDAGQKYVMRSDLMYEPQQSLQVDGPFQPGHRGYVWALADLGDRGFASAGRDATIRLWDHEGRCLGQLDGHTQSILGLVDVAPGELVSHSRDRTVRHWSLATGKSTLVGTSDSAVLSSARLGADRLVTGAADGCLTVWNLATGAADRRQAHACWVWAIAPTGDGSFASASEDGTVRLWQPEERDCVQVLDLGRPLRMLASWIDADGSVTLAVGDLDGAVHLLATEPRLALLDCLAAHDGPVRRVRFEARHMLLTCGEDGLVRRWNLPSRQGAIIGSHDNFATDVLPTRAGGWISCGYDGRILVHGDKG | failed |
| MQKDKILKKIIVLCFFIFYNFNFFGLAVPSLSGPVVDKAGILSRSEFEKIENFLLDLDQKSKVQIAVLIIPSLEGESIEDYSMQVAEEWKLGDKEKDSGALLVVAVKDKKLRIEVGYGLEENLTDSRSGQIIRNFIAPQFRSGNYGEGIYDGIKAMAAYASEDESLLKEIAVSDEDDEGGFPQALLFFLFVYLMISKFSPGGLFWIFYLLSRSGRAGRSFNGRSSSRGSFFGGSIGRSSGRGFSGGGFSGGGGSFGGGGASGGW | failed |
| MMQESGTETKSNGSAIQNGSGGSNHLLECGGLREGRSNGETPAVDIGAADLAHAQQQQQQWHLINHQPSRSPSSWLKRLISSPWELEVLQVPLWGAVAETKMSGPVCQPNPSPF | failed |
| MSLSIVRIDAEDRWSDVVIYNNTLWYTGVPENLDADAFEQTANTLAQIDAVLEKQGSSKSRILDATIFLSDKADFAAMNKAWDAWVVAGHAPVRCTVQAGLMNPKYKVEIKIVAAVEGHHHHHH | not failed |
| MEIFELILLMLSAVFLSNVLSRFLPSIAVPLIQVVLGIILAIPLGDHTMDLNPELFLLLFMAPILFNDGASTDKKSLWKNRKAILSLSIGLVFVTVGVLGAFIHYLIPAIPFAAAFALAAALAPTDAVAVGALAEKVRVPHKIMHILEGESLINDASGLVSFQFAVLALVTGTFSFMSAGTSFLLLSLGGIALGAILSLLKIMLMRGLRQLGIENMTSFMLMEILLPFLIFMVAEKVGVNGILAVVSGGMVHSFSYKGLNPEIAQLNLLSKNTWSVIIFSLNGLVFILLGTQLPQILMTIWQDANIQKGMLFVYIIGITFLLLGLRFLWILFFRNYEENPKVDLVSRLKNTFLYTVAGVRGTITLVSALSLPFVLGNGNAFPERDLLIFIAAGVIITTLLLANFTLPLFADKKDKVTADHTTDIVLLRDIVQQLQAYKTDENAVEMNKVLNMYNNRIFSLMEHKEVNATEKELRRLTQEWQLENTRRLVFERKIDTGVGLSHMMRLGKRLYVQTRAEKYRARMRYRQLLSHRFRDFRFVPLTFEERRKEIAKLQNENNLFVMQKLQDLDSNEYNPEIISLYLMNFERALGRGKNKKESNDEALQTTIDLASQIERETIQRYFEKGTITRKEMKVYRDNLLAIEANMQLEF | failed |
| MKFHVIDRENWNREQYFEHYLELKCTFSMTVNVDITLLIKKVHQKGIKFYPTFIYIISRIINKHKEFRTCFNDEGVLGYWEEMIPSYTIFHKDDKSFSSIWTDYSSDFRIFYKNYEEDMRCYASVHGLLTKENIPPNIFPISGIPWTSFTGFNLNINNDGDFLLPIITCGKYFNEENKIMLPVSLQVHHSVCDGYHVSRFIEDLQELSNSCNEWLK | failed |
